# Numbering of substitutions follows the chain as printed.
# T1: SIX1 (human, UniProt Q15475 1-284)
# T1 sequence: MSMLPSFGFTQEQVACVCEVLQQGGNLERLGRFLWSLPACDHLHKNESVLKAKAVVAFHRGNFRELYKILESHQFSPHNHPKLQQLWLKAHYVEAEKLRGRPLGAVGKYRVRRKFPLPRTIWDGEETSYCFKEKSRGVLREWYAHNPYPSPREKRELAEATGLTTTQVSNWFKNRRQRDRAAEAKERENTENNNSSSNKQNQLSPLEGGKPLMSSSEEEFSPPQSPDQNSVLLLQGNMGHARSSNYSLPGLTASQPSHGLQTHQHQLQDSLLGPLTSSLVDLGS
# B1: WNT5A_promoter_EMSA (dsDNA)
# DNA 1: CCCGCCCTAAGTGTCAAATTTCCTCCAGGGGAG
# DNA 2: CTCCCCTGGAGGAAATTTGACACTTAGGGCGGG
# B2: WNT5A_promoter_EMSAmut (dsDNA)
# DNA 1: B1 DNA 1 with G13A
# DNA 2: B1 DNA 2 with C21T
# Key:
# [1] = biological target: T1, SIX1; test: EMSA; EMSA: Active Motif Gelshift or Thermo LightShift chemiluminescent kit binding buffer, no glycerol, no poly d(I-C), RT 25 min; protein dilutions 1-300 nM; 6% gel in 0.5x TBE; pH and salt not given; conditions: protein: recombinant; tags: N-terminal HA from pGEX-6p1-N-HA (GST removed with PreScission); label: biotin 3' end (both strands, Pierce 3' end-labeling kit); blunt
# [2] = biological target: T1, SIX1; test: EMSA; modest increase in affinity vs N1; EMSA: Active Motif Gelshift or Thermo LightShift chemiluminescent kit binding buffer, no glycerol, no poly d(I-C), RT 25 min; protein dilutions 1-300 nM; 6% gel in 0.5x TBE; pH and salt not given; conditions: protein: recombinant; tags: N-terminal HA from pGEX-6p1-N-HA (GST removed with PreScission); label: biotin 3' end (both strands, Pierce 3' end-labeling kit); blunt
Binder,binding signal [1],binding result [2]
B1,~0.1 affinity relative to SIX1-Q177R on same probe,
B2,,binds
